# Assay results taken from patent publication US20140087995A1 (published 2014).
# Numbered stars: 1 amine (or outer) side, 2 acyl side, 3 side chain; on linkers, the order of the positions; unused ones are H or OH. Bridge positions count the residues as written; N and C are the ends. Side chains are listed from the residue outwards. Ends that are not written are not given here. * marks the point of attachment. C20 diacid = O=C(O)CCCCCCCCCCCCCCCCCCC(=O)*; γGlu = O=C(O)[C@H](CCC(=O)[*:2])N[*:1]; AEEA = NCCOCCOCC(=O)O
# T1: human calcitonin receptor (human, UniProt P30988 25-474)
# T1 construct: whole, on cells; Assay used cell membranes of the transfected BHK cells; also called hCTR; hCT
# T1 sequence (looked up): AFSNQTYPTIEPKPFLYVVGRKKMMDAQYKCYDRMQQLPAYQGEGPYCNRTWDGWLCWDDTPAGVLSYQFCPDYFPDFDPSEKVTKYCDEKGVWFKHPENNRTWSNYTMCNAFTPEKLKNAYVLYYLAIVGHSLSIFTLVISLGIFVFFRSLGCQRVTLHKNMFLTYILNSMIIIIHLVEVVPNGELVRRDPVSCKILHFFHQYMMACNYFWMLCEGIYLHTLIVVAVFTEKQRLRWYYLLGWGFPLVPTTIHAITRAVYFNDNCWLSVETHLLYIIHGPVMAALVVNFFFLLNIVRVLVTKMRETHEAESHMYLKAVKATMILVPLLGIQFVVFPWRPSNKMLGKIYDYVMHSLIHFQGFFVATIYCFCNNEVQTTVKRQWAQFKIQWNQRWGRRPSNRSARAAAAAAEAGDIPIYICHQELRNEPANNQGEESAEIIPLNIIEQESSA
# Molecular target: T1, human calcitonin receptor
# Assay: SPA radioligand competition (125I-calcitonin), membranes of BHK cells with human calcitonin receptor
# Procedure, shortened: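 BHK hCTR membranes 35 ng/μL + SPA beads 0.05 mg/well; buffer 50 mM Hepes pH 7.4, 1 mM CaCl2, 5 mM MgCl₂, 0.1% OA, 0.02% Tween20. 120 min, 25° C., shaking. Scintillation count; IC50 by one-site binding competition.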
row,Binder,IC50 [nM]
1,"K([AEEA-γGlu-C20 diacid])CNTATCATQRLANFLRHSSPNFGAIPSPTPVGSNTY-NH2 (disulfide 2-7; N-terminus assumed; SMILES CC[C@H](C)[C@H](NC(=O)[C@H](C)NC(=O)CNC(=O)[C@H](Cc1ccccc1)NC(=O)[C@H](CC(N)=O)NC(=O)[C@@H]1CCCN1C(=O)[C@H](CO)NC(=O)[C@H](CO)NC(=O)[C@H](Cc1c[nH]cn1)NC(=O)[C@H](CCCNC(=N)N)NC(=O)[C@H](CC(C)C)NC(=O)[C@H](Cc1ccccc1)NC(=O)[C@H](CC(N)=O)NC(=O)[C@H](C)NC(=O)[C@H](CC(C)C)NC(=O)[C@H](CCCNC(=N)N)NC(=O)[C@H](CCC(N)=O)NC(=O)[C@@H](NC(=O)[C@H](C)NC(=O)[C@@H]1CSSC[C@H](NC(=O)[C@@H](N)CCCCNC(=O)COCCOCCNC(=O)CC[C@H](NC(=O)CCCCCCCCCCCCCCCCCCC(=O)O)C(=O)O)C(=O)N[C@@H](CC(N)=O)C(=O)N[C@@H]([C@@H](C)O)C(=O)N[C@@H](C)C(=O)N[C@@H]([C@@H](C)O)C(=O)N1)[C@@H](C)O)C(=O)N1CCC[C@H]1C(=O)N[C@@H](CO)C(=O)N1CCC[C@H]1C(=O)N[C@H](C(=O)N1CCC[C@H]1C(=O)N[C@H](C(=O)NCC(=O)N[C@@H](CO)C(=O)N[C@@H](CC(N)=O)C(=O)N[C@H](C(=O)N[C@@H](Cc1ccc(O)cc1)C(N)=O)[C@@H](C)O)C(C)C)[C@@H](C)O, Synthetic analogue; also called compound 54)",4.38
2,"K([AEEA-γGlu-C20 diacid])CNTATCATQRLANFLRHSSPNFGAIPSPTNVGPNTY-NH2 (disulfide 2-7; N-terminus assumed; SMILES CC[C@H](C)[C@H](NC(=O)[C@H](C)NC(=O)CNC(=O)[C@H](Cc1ccccc1)NC(=O)[C@H](CC(N)=O)NC(=O)[C@@H]1CCCN1C(=O)[C@H](CO)NC(=O)[C@H](CO)NC(=O)[C@H](Cc1c[nH]cn1)NC(=O)[C@H](CCCNC(=N)N)NC(=O)[C@H](CC(C)C)NC(=O)[C@H](Cc1ccccc1)NC(=O)[C@H](CC(N)=O)NC(=O)[C@H](C)NC(=O)[C@H](CC(C)C)NC(=O)[C@H](CCCNC(=N)N)NC(=O)[C@H](CCC(N)=O)NC(=O)[C@@H](NC(=O)[C@H](C)NC(=O)[C@@H]1CSSC[C@H](NC(=O)[C@@H](N)CCCCNC(=O)COCCOCCNC(=O)CC[C@H](NC(=O)CCCCCCCCCCCCCCCCCCC(=O)O)C(=O)O)C(=O)N[C@@H](CC(N)=O)C(=O)N[C@@H]([C@@H](C)O)C(=O)N[C@@H](C)C(=O)N[C@@H]([C@@H](C)O)C(=O)N1)[C@@H](C)O)C(=O)N1CCC[C@H]1C(=O)N[C@@H](CO)C(=O)N1CCC[C@H]1C(=O)N[C@H](C(=O)N[C@@H](CC(N)=O)C(=O)N[C@H](C(=O)NCC(=O)N1CCC[C@H]1C(=O)N[C@@H](CC(N)=O)C(=O)N[C@H](C(=O)N[C@@H](Cc1ccc(O)cc1)C(N)=O)[C@@H](C)O)C(C)C)[C@@H](C)O, Synthetic analogue; also called compound 56)",2.09
3,"K([AEEA-γGlu-C20 diacid])CNTATCATQRLANFLRHSSPNFGAIPSSTPVGSHTY-NH2 (disulfide 2-7; N-terminus assumed; SMILES CC[C@H](C)[C@H](NC(=O)[C@H](C)NC(=O)CNC(=O)[C@H](Cc1ccccc1)NC(=O)[C@H](CC(N)=O)NC(=O)[C@@H]1CCCN1C(=O)[C@H](CO)NC(=O)[C@H](CO)NC(=O)[C@H](Cc1c[nH]cn1)NC(=O)[C@H](CCCNC(=N)N)NC(=O)[C@H](CC(C)C)NC(=O)[C@H](Cc1ccccc1)NC(=O)[C@H](CC(N)=O)NC(=O)[C@H](C)NC(=O)[C@H](CC(C)C)NC(=O)[C@H](CCCNC(=N)N)NC(=O)[C@H](CCC(N)=O)NC(=O)[C@@H](NC(=O)[C@H](C)NC(=O)[C@@H]1CSSC[C@H](NC(=O)[C@@H](N)CCCCNC(=O)COCCOCCNC(=O)CC[C@H](NC(=O)CCCCCCCCCCCCCCCCCCC(=O)O)C(=O)O)C(=O)N[C@@H](CC(N)=O)C(=O)N[C@@H]([C@@H](C)O)C(=O)N[C@@H](C)C(=O)N[C@@H]([C@@H](C)O)C(=O)N1)[C@@H](C)O)C(=O)N1CCC[C@H]1C(=O)N[C@@H](CO)C(=O)N[C@@H](CO)C(=O)N[C@H](C(=O)N1CCC[C@H]1C(=O)N[C@H](C(=O)NCC(=O)N[C@@H](CO)C(=O)N[C@@H](Cc1c[nH]cn1)C(=O)N[C@H](C(=O)N[C@@H](Cc1ccc(O)cc1)C(N)=O)[C@@H](C)O)C(C)C)[C@@H](C)O, Synthetic analogue; also called compound 57)",15.3
4,"K([AEEA-γGlu-C20 diacid])CNTATCATQRLANFLRHSSPNFGAIPSSTNVGPHTY-NH2 (disulfide 2-7; N-terminus assumed; SMILES CC[C@H](C)[C@H](NC(=O)[C@H](C)NC(=O)CNC(=O)[C@H](Cc1ccccc1)NC(=O)[C@H](CC(N)=O)NC(=O)[C@@H]1CCCN1C(=O)[C@H](CO)NC(=O)[C@H](CO)NC(=O)[C@H](Cc1c[nH]cn1)NC(=O)[C@H](CCCNC(=N)N)NC(=O)[C@H](CC(C)C)NC(=O)[C@H](Cc1ccccc1)NC(=O)[C@H](CC(N)=O)NC(=O)[C@H](C)NC(=O)[C@H](CC(C)C)NC(=O)[C@H](CCCNC(=N)N)NC(=O)[C@H](CCC(N)=O)NC(=O)[C@@H](NC(=O)[C@H](C)NC(=O)[C@@H]1CSSC[C@H](NC(=O)[C@@H](N)CCCCNC(=O)COCCOCCNC(=O)CC[C@H](NC(=O)CCCCCCCCCCCCCCCCCCC(=O)O)C(=O)O)C(=O)N[C@@H](CC(N)=O)C(=O)N[C@@H]([C@@H](C)O)C(=O)N[C@@H](C)C(=O)N[C@@H]([C@@H](C)O)C(=O)N1)[C@@H](C)O)C(=O)N1CCC[C@H]1C(=O)N[C@@H](CO)C(=O)N[C@@H](CO)C(=O)N[C@H](C(=O)N[C@@H](CC(N)=O)C(=O)N[C@H](C(=O)NCC(=O)N1CCC[C@H]1C(=O)N[C@@H](Cc1c[nH]cn1)C(=O)N[C@H](C(=O)N[C@@H](Cc1ccc(O)cc1)C(N)=O)[C@@H](C)O)C(C)C)[C@@H](C)O, Synthetic analogue; also called compound 58)",9.63

# Second part, the binder after the results:
row,IC50 [nM],Binder
1,1.38,"K([AEEA-γGlu-C20 diacid])CNTATCATQRLANFLRHSSPNFGAIPSSTNVGPNTY-NH2 (disulfide 2-7; N-terminus assumed; SMILES CC[C@H](C)[C@H](NC(=O)[C@H](C)NC(=O)CNC(=O)[C@H](Cc1ccccc1)NC(=O)[C@H](CC(N)=O)NC(=O)[C@@H]1CCCN1C(=O)[C@H](CO)NC(=O)[C@H](CO)NC(=O)[C@H](Cc1c[nH]cn1)NC(=O)[C@H](CCCNC(=N)N)NC(=O)[C@H](CC(C)C)NC(=O)[C@H](Cc1ccccc1)NC(=O)[C@H](CC(N)=O)NC(=O)[C@H](C)NC(=O)[C@H](CC(C)C)NC(=O)[C@H](CCCNC(=N)N)NC(=O)[C@H](CCC(N)=O)NC(=O)[C@@H](NC(=O)[C@H](C)NC(=O)[C@@H]1CSSC[C@H](NC(=O)[C@@H](N)CCCCNC(=O)COCCOCCNC(=O)CC[C@H](NC(=O)CCCCCCCCCCCCCCCCCCC(=O)O)C(=O)O)C(=O)N[C@@H](CC(N)=O)C(=O)N[C@@H]([C@@H](C)O)C(=O)N[C@@H](C)C(=O)N[C@@H]([C@@H](C)O)C(=O)N1)[C@@H](C)O)C(=O)N1CCC[C@H]1C(=O)N[C@@H](CO)C(=O)N[C@@H](CO)C(=O)N[C@H](C(=O)N[C@@H](CC(N)=O)C(=O)N[C@H](C(=O)NCC(=O)N1CCC[C@H]1C(=O)N[C@@H](CC(N)=O)C(=O)N[C@H](C(=O)N[C@@H](Cc1ccc(O)cc1)C(N)=O)[C@@H](C)O)C(C)C)[C@@H](C)O, Synthetic analogue; also called compound 50)"
2,8.11,"K([AEEA-γGlu-C20 diacid])CNTATCATQRLAHFLRHSSPNFGAIPSSTPVGSNTY-NH2 (disulfide 2-7; N-terminus assumed; SMILES CC[C@H](C)[C@H](NC(=O)[C@H](C)NC(=O)CNC(=O)[C@H](Cc1ccccc1)NC(=O)[C@H](CC(N)=O)NC(=O)[C@@H]1CCCN1C(=O)[C@H](CO)NC(=O)[C@H](CO)NC(=O)[C@H](Cc1c[nH]cn1)NC(=O)[C@H](CCCNC(=N)N)NC(=O)[C@H](CC(C)C)NC(=O)[C@H](Cc1ccccc1)NC(=O)[C@H](Cc1c[nH]cn1)NC(=O)[C@H](C)NC(=O)[C@H](CC(C)C)NC(=O)[C@H](CCCNC(=N)N)NC(=O)[C@H](CCC(N)=O)NC(=O)[C@@H](NC(=O)[C@H](C)NC(=O)[C@@H]1CSSC[C@H](NC(=O)[C@@H](N)CCCCNC(=O)COCCOCCNC(=O)CC[C@H](NC(=O)CCCCCCCCCCCCCCCCCCC(=O)O)C(=O)O)C(=O)N[C@@H](CC(N)=O)C(=O)N[C@@H]([C@@H](C)O)C(=O)N[C@@H](C)C(=O)N[C@@H]([C@@H](C)O)C(=O)N1)[C@@H](C)O)C(=O)N1CCC[C@H]1C(=O)N[C@@H](CO)C(=O)N[C@@H](CO)C(=O)N[C@H](C(=O)N1CCC[C@H]1C(=O)N[C@H](C(=O)NCC(=O)N[C@@H](CO)C(=O)N[C@@H](CC(N)=O)C(=O)N[C@H](C(=O)N[C@@H](Cc1ccc(O)cc1)C(N)=O)[C@@H](C)O)C(C)C)[C@@H](C)O, Synthetic analogue; also called compound 61)"
